Measurements from US20180155451A1 (published 2018).

B1: GpH7-A5/GpH7-B3 variant A330_07I/GpL16-k0 (antibody, human IgG1, kappa)
heavy 1: not shown
heavy 2: not shown
light: DIVMTQSPLSLPVTPGEPASISCQASESLVHSNRNTYLHWYLQKPGQSPQLLIYKVSNRFSGVPDRFSGSGSGTDFTLKISRVEAEDVGVYYCSQNTHVPPTFGQGTKVEIERTVAAPSVFIFPPSDEQLKSGTASVVCLLNNFYPREAKVQWKVDNALQSGNSQESVTEQDSKDSTYSLSSTLTLSKADYEKHKVYACEVTHQGLSSPVTKSFNRGEC
notes: also called He Ab A330_07I
B2: GpH7-A5/GpH7-B3 variant S337_15Y/GpL16-k0 (antibody, human IgG1, kappa)
heavy 1: not shown
heavy 2: not shown
light: B1 light
notes: also called He Ab S337_15Y
B3: GpH7-A5/GpH7-B3 variant S267_09D/GpL16-k0 (antibody, human IgG1, kappa)
heavy 1: not shown
heavy 2: not shown
light: B1 light
notes: also called He Ab S267_09D
B4: GpH7-A5/GpH7-B3 variant K326_07I/GpL16-k0 (antibody, human IgG1, kappa)
heavy 1: not shown
heavy 2: not shown
light: B1 light
notes: also called He Ab K326_07I
B5: GpH7-A5/GpH7-B3 variant G236_15Y/GpL16-k0 (antibody, human IgG1, kappa)
heavy 1: not shown
heavy 2: not shown
light: B1 light
notes: also called He Ab G236_15Y
B6: GpH7-A5/GpH7-B3 variant S298_14T/GpL16-k0 (antibody, human IgG1, kappa)
heavy 1: not shown
heavy 2: not shown
light: B1 light
notes: also called He Ab S298_14T
B7: GpH7-A5/GpH7-B3 variant L234_20W/GpL16-k0 (antibody, human IgG1, kappa)
heavy 1: not shown
heavy 2: not shown
light: B1 light
notes: also called He Ab L234_20W
B8: GpH7-A5/GpH7-B3 variant K334_09D/GpL16-k0 (antibody, human IgG1, kappa)
heavy 1: not shown
heavy 2: not shown
light: B1 light
notes: also called He Ab K334_09D
B9: GpH7-A5/GpH7-B3 variant S324_02A/GpL16-k0 (antibody, human IgG1, kappa)
heavy 1: not shown
heavy 2: not shown
light: B1 light
notes: also called He Ab S324_02A
B10: GpH7-A5/GpH7-B3 variant E333_13S/GpL16-k0 (antibody, human IgG1, kappa)
heavy 1: not shown
heavy 2: not shown
light: B1 light
notes: also called He Ab E333_13S
B11: GpH7-A5/GpH7-B3 variant T335_13S/GpL16-k0 (antibody, human IgG1, kappa)
heavy 1: not shown
heavy 2: not shown
light: B1 light
notes: also called He Ab T335_13S
B12: GpH7-A5/GpH7-B3 variant S337_18N/GpL16-k0 (antibody, human IgG1, kappa)
heavy 1: not shown
heavy 2: not shown
light: B1 light
notes: also called He Ab S337_18N
B13: GpH7-A5/GpH7-B3 variant E333_20W/GpL16-k0 (antibody, human IgG1, kappa)
heavy 1: not shown
heavy 2: not shown
light: B1 light
notes: also called He Ab E333_20W
B14: GpH7-A5/GpH7-B3 variant S337_10E/GpL16-k0 (antibody, human IgG1, kappa)
heavy 1: not shown
heavy 2: not shown
light: B1 light
notes: also called He Ab S337_10E
B15: GpH7-A5/GpH7-B3 variant H268_02A/GpL16-k0 (antibody, human IgG1, kappa)
heavy 1: not shown
heavy 2: not shown
light: B1 light
notes: also called He Ab H268_02A
B16: GpH7-A5/GpH7-B3 variant I336_02A/GpL16-k0 (antibody, human IgG1, kappa)
heavy 1: not shown
heavy 2: not shown
light: B1 light
notes: also called He Ab I336_02A
B17: GpH7-A5/GpH7-B3 variant S337_09D/GpL16-k0 (antibody, human IgG1, kappa)
heavy 1: not shown
heavy 2: not shown
light: B1 light
notes: also called He Ab S337_09D
B18: GpH7-A5/GpH7-B3 variant I332_01G/GpL16-k0 (antibody, human IgG1, kappa)
heavy 1: not shown
heavy 2: not shown
light: B1 light
notes: also called He Ab I332_01G
B19: GpH7-A5/GpH7-B3 variant P238_09D/GpL16-k0 (antibody, human IgG1, kappa)
heavy 1: not shown
heavy 2: not shown
light: B1 light
notes: also called He Ab P238_09D
B20: GpH7-A5/GpH7-B3 variant S324_15Y/GpL16-k0 (antibody, human IgG1, kappa)
heavy 1: not shown
heavy 2: not shown
light: B1 light
notes: also called He Ab S324_15Y
B21: GpH7-A5/GpH7-B3 variant L234_04F/GpL16-k0 (antibody, human IgG1, kappa)
heavy 1: not shown
heavy 2: not shown
light: B1 light
notes: also called He Ab L234_04F
B22: GpH7-A5/GpH7-B3 variant E333_02A/GpL16-k0 (antibody, human IgG1, kappa)
heavy 1: not shown
heavy 2: not shown
light: B1 light
notes: also called He Ab E333_02A
B23: GpH7-A5/GpH7-B3 variant S337_14T/GpL16-k0 (antibody, human IgG1, kappa)
heavy 1: not shown
heavy 2: not shown
light: B1 light
notes: also called He Ab S337_14T
B24: GpH7-A5/GpH7-B3 variant Q295_14T/GpL16-k0 (antibody, human IgG1, kappa)
heavy 1: not shown
heavy 2: not shown
light: B1 light
notes: also called He Ab Q295_14T
B25: GpH7-A5/GpH7-B3 variant S337_20W/GpL16-k0 (antibody, human IgG1, kappa)
heavy 1: not shown
heavy 2: not shown
light: B1 light
notes: also called He Ab S337_20W
B26: GpH7-A5/GpH7-B3 variant S267_02A/GpL16-k0 (antibody, human IgG1, kappa)
heavy 1: not shown
heavy 2: not shown
light: B1 light
notes: also called He Ab S267_02A
B27: GpH7-A5/GpH7-B3 variant L234_07I/GpL16-k0 (antibody, human IgG1, kappa)
heavy 1: not shown
heavy 2: not shown
light: B1 light
notes: also called He Ab L234_07I
B28: GpH7-A5/GpH7-B3 variant S337_04F/GpL16-k0 (antibody, human IgG1, kappa)
heavy 1: not shown
heavy 2: not shown
light: B1 light
notes: also called He Ab S337_04F
B29: GpH7-A5/GpH7-B3 variant I336_06M/GpL16-k0 (antibody, human IgG1, kappa)
heavy 1: not shown
heavy 2: not shown
light: B1 light
notes: also called He Ab I336_06M
B30: GpH7-A5/GpH7-B3 variant P238_10E/GpL16-k0 (antibody, human IgG1, kappa)
heavy 1: not shown
heavy 2: not shown
light: B1 light
notes: also called He Ab P238_10E
B31: GpH7-A5/GpH7-B3 variant I332_06M/GpL16-k0 (antibody, human IgG1, kappa)
heavy 1: not shown
heavy 2: not shown
light: B1 light
notes: also called He Ab I332_06M
B32: GpH7-A5/GpH7-B3 variant E333_04F/GpL16-k0 (antibody, human IgG1, kappa)
heavy 1: not shown
heavy 2: not shown
light: B1 light
notes: also called He Ab E333_04F
B33: GpH7-A5/GpH7-B3 variant E333_09D/GpL16-k0 (antibody, human IgG1, kappa)
heavy 1: not shown
heavy 2: not shown
light: B1 light
notes: also called He Ab E333_09D
B34: GpH7-A5/GpH7-B3 variant E333_03V/GpL16-k0 (antibody, human IgG1, kappa)
heavy 1: not shown
heavy 2: not shown
light: B1 light
notes: also called He Ab E333_03V
B35: GpH7-A5/GpH7-B3 variant K334_01G/GpL16-k0 (antibody, human IgG1, kappa)
heavy 1: not shown
heavy 2: not shown
light: B1 light
notes: also called He Ab K334_01G
B36: GpH7-A5/GpH7-B3 variant K326_08L/GpL16-k0 (antibody, human IgG1, kappa)
heavy 1: not shown
heavy 2: not shown
light: B1 light
notes: also called He Ab K326_08L
B37: GpH7-A5/GpH7-B3 variant P271_01G/GpL16-k0 (antibody, human IgG1, kappa)
heavy 1: not shown
heavy 2: not shown
light: B1 light
notes: also called He Ab P271_01G
B38: GpH7-A5/GpH7-B3 variant T335_10E/GpL16-k0 (antibody, human IgG1, kappa)
heavy 1: not shown
heavy 2: not shown
light: B1 light
notes: also called He Ab T335_10E
B39: GpH7-A5/GpH7-B3 variant I336_18N/GpL16-k0 (antibody, human IgG1, kappa)
heavy 1: not shown
heavy 2: not shown
light: B1 light
notes: also called He Ab I336_18N
B40: GpH7-A5/GpH7-B3 variant H268_18N/GpL16-k0 (antibody, human IgG1, kappa)
heavy 1: not shown
heavy 2: not shown
light: B1 light
notes: also called He Ab H268_18N
B41: GpH7-A5/GpH7-B3 variant T335_07I/GpL16-k0 (antibody, human IgG1, kappa)
heavy 1: not shown
heavy 2: not shown
light: B1 light
notes: also called He Ab T335_07I
B42: GpH7-A5/GpH7-B3 variant I336_03V/GpL16-k0 (antibody, human IgG1, kappa)
heavy 1: not shown
heavy 2: not shown
light: B1 light
notes: also called He Ab I336_03V
B43: GpH7-A5/GpH7-B3 variant S324_16H/GpL16-k0 (antibody, human IgG1, kappa)
heavy 1: not shown
heavy 2: not shown
light: B1 light
notes: also called He Ab S324_16H
B44: GpH7-A5/GpH7-B3 variant I336_08L/GpL16-k0 (antibody, human IgG1, kappa)
heavy 1: not shown
heavy 2: not shown
light: B1 light
notes: also called He Ab I336_08L

Each binder was assayed against T1, FcγRIIIa extracellular domain with C-terminal His tag (human, UniProt P08637 17-208) (assay: SPR relative binding; GpH7-A5/GpH7-B3/GpL16-k0 = 100).
T1 construct: extracellular domain; also called FcgRIIIa; 3a; not shown: His tag at the C terminus
Description: Analysis of interaction between objective antibody and the FcγR was carried out using Biacore T100 (GE Healthcare). HBS-EP+ (GE Healthcare) was used as the running buffer, and the measurement temperature was set to 25° C. Chips produced by immobilizing the antigen peptide by the amine coupling method to a Series S Sencor Chip CM5 (GE Healthcare), or alternatively, chips produced by allowing preliminarily biotinylated antigen peptides to interact with and immobilize onto a Series S Sensor Chip SA (certified) (GE Healthcare) were used. Antibodies of interest were captured onto an antigen peptide-immobilized chip, and allowed to interact to each FcγR diluted with running buffer. To regenerate and repeatedly use the chip, the antibodies captured on the chip were washed off by reacting 10 mM glycine-HCl, pH 1.5.
The FcγR-binding activity of each antibody was assessed primarily using as an indicator the FcγR-binding activity and dissociation constant for FcγR.

T1 sequence (P08637 17-208): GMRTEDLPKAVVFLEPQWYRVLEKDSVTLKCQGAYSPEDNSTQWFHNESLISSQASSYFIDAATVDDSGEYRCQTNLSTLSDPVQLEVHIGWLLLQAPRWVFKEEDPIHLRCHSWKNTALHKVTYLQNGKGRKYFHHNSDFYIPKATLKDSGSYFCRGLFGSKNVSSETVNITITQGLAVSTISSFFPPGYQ

He/Con_3a | Binder
103 % of control | B1
102 % of control | B2
181 % of control | B3
139 % of control | B4
121 % of control | B5
113 % of control | B6
107 % of control | B7
160 % of control | B8
104 % of control | B9
103 % of control | B10
105 % of control | B11
104 % of control | B12
101 % of control | B13
105 % of control | B14
122 % of control | B15
111 % of control | B16
110 % of control | B17
111 % of control | B18
106 % of control | B19
101 % of control | B20
118 % of control | B21
105 % of control | B22

He/Con_3a | Binder
101 % of control | B23
115 % of control | B24
101 % of control | B25
150 % of control | B26
103 % of control | B27
101 % of control | B28
109 % of control | B29
105 % of control | B30
101 % of control | B31
101 % of control | B32
112 % of control | B33
103 % of control | B34
121 % of control | B35
114 % of control | B36
113 % of control | B37
107 % of control | B38
104 % of control | B39
104 % of control | B40
107 % of control | B41
112 % of control | B42
104 % of control | B43
106 % of control | B44
